In PMC11704961:

What was measured:
Test in all cases: EMSA
IPMK = IPMK (human, UniProt Q8NFU5 1-416)
[1] = biological target: T1, SRF (His-SRF);Elk1 (GST-His-Elk1) (human;human, UniProt P11831;P19419 1-508;1-428, |)
T1 sequence 1: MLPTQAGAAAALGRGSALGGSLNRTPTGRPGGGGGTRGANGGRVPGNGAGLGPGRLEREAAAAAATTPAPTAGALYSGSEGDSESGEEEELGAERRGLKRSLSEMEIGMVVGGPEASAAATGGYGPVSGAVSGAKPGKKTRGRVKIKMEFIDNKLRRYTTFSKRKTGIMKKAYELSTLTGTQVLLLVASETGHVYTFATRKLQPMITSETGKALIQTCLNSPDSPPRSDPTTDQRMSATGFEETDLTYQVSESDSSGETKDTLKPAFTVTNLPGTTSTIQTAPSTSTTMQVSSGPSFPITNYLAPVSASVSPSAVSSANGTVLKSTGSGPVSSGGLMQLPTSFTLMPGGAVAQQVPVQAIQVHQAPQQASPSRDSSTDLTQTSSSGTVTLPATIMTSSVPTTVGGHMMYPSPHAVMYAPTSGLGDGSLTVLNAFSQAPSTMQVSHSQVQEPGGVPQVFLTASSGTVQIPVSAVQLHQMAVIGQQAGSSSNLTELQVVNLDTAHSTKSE
T1 sequence 2: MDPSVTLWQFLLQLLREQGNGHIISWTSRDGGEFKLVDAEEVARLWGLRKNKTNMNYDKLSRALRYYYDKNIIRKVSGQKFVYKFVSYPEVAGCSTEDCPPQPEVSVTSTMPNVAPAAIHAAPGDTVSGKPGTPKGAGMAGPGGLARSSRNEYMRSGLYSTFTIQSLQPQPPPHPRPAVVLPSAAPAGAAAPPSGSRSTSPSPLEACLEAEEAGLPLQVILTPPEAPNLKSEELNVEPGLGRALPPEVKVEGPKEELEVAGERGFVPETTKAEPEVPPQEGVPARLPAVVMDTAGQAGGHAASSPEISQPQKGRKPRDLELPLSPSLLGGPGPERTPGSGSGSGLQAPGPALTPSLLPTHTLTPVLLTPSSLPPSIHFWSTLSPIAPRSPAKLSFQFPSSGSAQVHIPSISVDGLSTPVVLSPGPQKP

SRF (His-SRF) = biological target: T2, SRF (His-SRF) (human, UniProt P11831 1-508)
T2 sequence: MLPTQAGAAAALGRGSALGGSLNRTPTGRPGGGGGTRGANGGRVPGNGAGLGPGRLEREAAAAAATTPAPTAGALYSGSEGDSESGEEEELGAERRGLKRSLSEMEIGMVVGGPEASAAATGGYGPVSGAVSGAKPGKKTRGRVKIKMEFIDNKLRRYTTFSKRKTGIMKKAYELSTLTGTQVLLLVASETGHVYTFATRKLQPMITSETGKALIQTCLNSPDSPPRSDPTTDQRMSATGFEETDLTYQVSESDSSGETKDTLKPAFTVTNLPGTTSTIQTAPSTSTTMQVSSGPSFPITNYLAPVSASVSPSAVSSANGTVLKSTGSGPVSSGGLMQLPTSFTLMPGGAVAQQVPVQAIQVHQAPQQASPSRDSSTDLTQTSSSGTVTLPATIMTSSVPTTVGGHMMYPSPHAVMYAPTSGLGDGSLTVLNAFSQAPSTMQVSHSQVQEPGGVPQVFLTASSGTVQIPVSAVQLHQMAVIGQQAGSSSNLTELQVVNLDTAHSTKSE

Sequence of IPMK (Q8NFU5 whole entry): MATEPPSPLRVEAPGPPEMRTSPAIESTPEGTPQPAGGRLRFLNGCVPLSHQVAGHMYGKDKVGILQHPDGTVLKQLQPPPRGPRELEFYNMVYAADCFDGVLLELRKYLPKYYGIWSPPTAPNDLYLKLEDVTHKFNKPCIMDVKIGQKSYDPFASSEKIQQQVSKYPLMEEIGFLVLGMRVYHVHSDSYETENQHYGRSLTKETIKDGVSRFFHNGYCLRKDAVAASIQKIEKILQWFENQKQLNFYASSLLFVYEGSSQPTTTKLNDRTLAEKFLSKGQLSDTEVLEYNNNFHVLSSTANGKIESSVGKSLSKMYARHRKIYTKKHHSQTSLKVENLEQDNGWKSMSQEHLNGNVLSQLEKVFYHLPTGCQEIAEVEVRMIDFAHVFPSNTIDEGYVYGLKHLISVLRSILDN

B1: c-fos SRE EMSA probe (dsDNA)
DNA 1: CTAAGCTTGCTGACGCAGATGTCCTAATATGGACATCCTGTCCCGGGGA
DNA 2: TCCCCGGGACAGGATGTCCATATTAGGACATCTGCGTCAGCAAGCTTAG
Question: Does B1 bind (IPMK)?
Answer: Result: no binding

Question: Does B1 bind [1]?
Answer: Result: binds

Question: Does B1 bind (SRF (His-SRF))?
Answer: Result: binds
